# Read-outs that look alike come from different tables or passages of the source. Square brackets hold non-standard residues; d marks the D form. Ends that are not written are not given here. Lys(Me3) = C[N+](C)(C)CCCC[C@H](N)C(=O)O
# T1: Cbx4 chromodomain, Cbx4-(8–65) (human, UniProt O00257 8-65)
# T1 sequence: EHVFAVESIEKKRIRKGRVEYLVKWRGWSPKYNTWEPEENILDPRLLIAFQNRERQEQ
# T2: Cbx7 chromodomain, Cbx7-(8–62) (human, UniProt O95931 8-62)
# T2 sequence: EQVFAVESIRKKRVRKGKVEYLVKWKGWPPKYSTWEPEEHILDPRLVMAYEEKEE
# T3: Cbx2 chromodomain, Cbx2-(9–66) (human, UniProt Q14781 9-66)
# T3 sequence: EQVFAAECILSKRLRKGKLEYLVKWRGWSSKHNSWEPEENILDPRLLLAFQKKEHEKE
# T4: Cbx8 chromodomain, Cbx8-(8–61) (human, UniProt Q9HC52 8-61)
# T4 sequence: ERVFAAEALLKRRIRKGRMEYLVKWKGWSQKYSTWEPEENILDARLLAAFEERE
# T5: Cbx6 chromodomain, Cbx6-(8–65) (human, UniProt O95503 8-65)
# T5 sequence: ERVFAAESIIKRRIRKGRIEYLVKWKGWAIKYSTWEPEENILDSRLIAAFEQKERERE
# T6: His6-tagged Cbx7 chromodomain (peptide arrays) (human, UniProt O95931 8-62)
# T6 sequence: T2 sequence
# What was measured:
# [1] = target: His6-tagged Cbx3 chromodomain (peptide arrays) (human, UniProt Q13185 29-81); test: peptide or protein array
# Chain of His6-tagged Cbx3 chromodomain (peptide arrays) (Q13185 29-81): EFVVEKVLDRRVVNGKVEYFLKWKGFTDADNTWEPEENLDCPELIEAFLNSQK
# [2] = target: T1, Cbx4 chromodomain, Cbx4-(8–65); test: fluorescence polarisation
# [3] = target: T2, Cbx7 chromodomain, Cbx7-(8–62); test: fluorescence polarisation
# [4] = target: T3, Cbx2 chromodomain, Cbx2-(9–66); test: fluorescence polarisation
# [5] = target: T4, Cbx8 chromodomain, Cbx8-(8–61); test: fluorescence polarisation
# [6] = target: T5, Cbx6 chromodomain, Cbx6-(8–65); test: fluorescence polarisation
# [7] = target: Cbx1 chromodomain, Cbx1-(20–73) (human, UniProt P83916 20-73); test: fluorescence polarisation
# Chain of Cbx1 chromodomain, Cbx1-(20–73) (P83916 20-73): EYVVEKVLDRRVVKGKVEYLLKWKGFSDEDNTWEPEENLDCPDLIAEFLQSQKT
# [8] = target: Cbx5 chromodomain, Cbx5-(18–75) (human, UniProt P45973 18-75); test: fluorescence polarisation
# Chain of Cbx5 chromodomain, Cbx5-(18–75) (P45973 18-75): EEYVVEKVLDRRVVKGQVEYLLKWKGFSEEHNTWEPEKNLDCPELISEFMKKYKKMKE
# [9] = target: T6, His6-tagged Cbx7 chromodomain (peptide …); test: peptide or protein array
# [10] = target: T2, Cbx7 chromodomain, Cbx7-(8–62)
# [11] = target: T4, Cbx8 chromodomain, Cbx8-(8–61)
binder,measurement,setting,value
"TKNTAR[Lys(Me3)]STGGKA (also: held on a cellulose membrane through a polyethylglycol linker) [histone H3 residues 3–15, K9me3, Gln-5 to Asn array peptide]",binding result,[1],binds
"fluorescein-QLATKTAR[Lys(Me3)]SAPATG [H3K27Me3A24T peptide (QLATKTARK(me3)SAPATG), fluorescein-labeled]",Kd,[2],250 µM
same,Kd,[3],210 µM
same,Kd,[4],330 µM
same,Kd,[5],> 500 µM
same,Kd,[6],> 500 µM
"ARTKQTARKSTGGKA (trimethyllysine at 9; fluorescein on the N-terminus) [H3K9Me3 peptide (ARTKQTARK(me3)STGGKA), fluorescein-labeled]",Kd,[2],70 µM
same,Kd,[7],5 µM
same,Kd,[8],30 µM
"QLATKAARKSAPATG (trimethyllysine at 27; fluorescein on the N-terminus) [H3K27Me3 peptide (QLATKAARK(me3)SAPATG), fluorescein-labeled]",Kd,[2],205 µM
same,Kd,[3],110 µM
same,Kd,[4],185 µM
same,Kd,[5],> 500 µM
same,Kd,[6],> 500 µM
"fluorescein-ARTKQAAR[Lys(Me3)]STGGKA [H3K9Me3T6A peptide (ARTKQAARK(me3)STGGKA), fluorescein-labeled]",Kd,[2],80 µM
same,Kd,[3],140 µM
same,Kd,[7],45 µM
"TKCTAR[Lys(Me3)]STGGKA (also: held on a cellulose membrane through a polyethylglycol linker) [histone H3 residues 3–15, K9me3, Gln-5 to Cys array peptide]",binding result,[1],binds
"TKQTAR[Lys(Me3)]STGGKA (also: held on a cellulose membrane through a polyethylglycol linker) [histone H3 residues 3–15 with trimethylated Lys-9, membrane-immobilized array peptide]",binding result,[9],binds
same,binding result,[1],binds
"TKQVAR[Lys(Me3)]STGGKA (also: held on a cellulose membrane through a polyethylglycol linker) [histone H3 residues 3–15, K9me3, T6V array peptide]",binding result,[1],binds
"TKHTAR[Lys(Me3)]STGGKA (also: held on a cellulose membrane through a polyethylglycol linker) [histone H3 residues 3–15, K9me3, Gln-5 to His array peptide]",binding result,[1],binds
"ATKAAR[Lys(Me3)]SAPATG (also: held on a cellulose membrane through a polyethylglycol linker) [histone H3 residues 21–33 with trimethylated Lys-27, membrane-immobilized array peptide]",binding result,[9],binds
RQVAV[Lys(Me3)]STR [SETDB1 peptide RQVAVKme3STR],Kd,[10],43 µM
same,Kd,[11],98 µM
RGFAL[Lys(Me3)]STHG [SETDB1 peptide 1165-RGFALKme3STHG],Kd,[10],5 µM
HGIAI[Lys(Me3)]STN [SETDB1 peptide HGIAIKme3STN],Kd,[10],5 µM
same,Kd,[11],37 µM
